Data set [1] has as its system HeLa Kyoto. The data set is described as follows: thermal stability score vs G1/S (z-score of summed log2 fold changes over temperatures); higher = more thermally stable than in G1/S.
The test system of data set [2] is HeLa Kyoto. Description: solubility change mitosis vs G1/S (difference of NP-40 vs SDS log2 ratios) (log2 ratio difference); higher = more soluble in mitosis.
Data set [3] relates to HeLa Kyoto. The data set is described as follows: melting temperature (median over replicates), in situ; higher = more thermally stable.
The test system of data set [4] is HeLa Kyoto. The data set is described as follows: solubility in G1/S (NP-40 vs SDS abundance) (log2 ratio); higher = more soluble. To be noted: cell cycle stage: G1/S.
[5] abbreviates: cell cycle stage: early G1 (4.5 h after nocodazole release).
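For melting temperature (median over replicates), in situ in this document: HeLa Kyoto cells synchronized by double thymidine or nocodazole block, proteins quantified by TMT10plex mass spectrometry, three independent biological replicates.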
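For solubility change mitosis vs G1/S (difference of NP-40 vs SDS log2 ratios) in this document: synchronized HeLa Kyoto cells (double thymidine block for G1/S, nocodazole release for mitosis), protein amounts in NP-40 versus SDS lysates quantified by mass spectrometry, three biological replicates.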
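For solubility in G1/S (NP-40 vs SDS abundance) in this document: HeLa Kyoto cells arrested at G1/S by double thymidine block, proteins quantified by TMT10plex mass spectrometry in mild NP-40 versus SDS extracts, three biological replicates.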
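For thermal stability score vs G1/S (z-score of summed log2 fold changes over temperatures) in this document: synchronized HeLa Kyoto cells, proteins quantified by TMT10plex mass spectrometry, three biological replicates, mitosis taken 0.5 h after nocodazole release, G1/S directly after double thymidine block.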

For “MLFNSVLRQPQLGVLRNGWSSQYPLQSLLTGYQCSGNDEHTSYGETGVPVPPFGCTFSSAPNMEHVLAVANEEGFVRLYNTESQSFRKKCFKEWMAHWNAVFDLAWVPGELKLVTAAGDQTAKFWDVKAGELIGTCKGHQCSLKSVAFSKFEKAVFCTGGRDGNIMVWDTRCNKKDGFYRQVNQISGAHNTSDKQTPSKPKKKQNSKGLAPSVDFQQSVTVVLFQDENTLVSAGAVDGIIKVWDLRKNYTAYRQEPIASKSFLYPGSSTRKLGYSSLILDSTGSTLFANCTDDNIYMFNMTGLKTSPVAIFNGHQNSTFYVKSSLSPDDQFLVSGSSDEAAYIWKVSTPWQPPTVLLGHSQEVTSVCWCPSDFTKIATCSDDNTLKIWRLNRGLEEKPGGDKLSTVGWASQKKKESRPGLVTVTSSQSTPAKAPRAKCNPSNSSPSSAACAPSCAGDLPLPSNTPTFSIKTSPAKARSPINRRGSVSSVSPKPPSSFKMSIRNWVTRTPSSSPPITPPASETKIMSPRKALIPVSQKSSQAEACSESRNRVKRRLDSSCLESVKQKCVKSCNCVTELDGQVENLHLDLCCLAGNQEDLSKDSLGPTKSSKIEGAGTSISEPPSPISPYASESCGTLPLPLRPCGEGSEMVGKENSSPENKNWLLAMAAKRKAENPSPRSPSSQTPNSRRQSGKKLPSPVTITPSSMRKICTYFHRKSQEDFCGPEHSTEL [DTL]”, the thermal stability score in the data set with HeLa Kyoto [1] (setting [5]) was -1.36; in the data set on HeLa Kyoto [1] (cell cycle stage: mitosis), -1.25. For the same sequence, the “solubility change mitosis (log2)” value in the data set on HeLa Kyoto [2] is -0.0846. In addition, the figures for the melting temperature in the data set with HeLa Kyoto [3] (cell cycle stage: G1/S) and in the data set with HeLa Kyoto [3] (cell cycle stage: mitosis) were 50.4 °C and 50.1 °C, respectively. Further, in the data set on HeLa Kyoto [4], the “solubility in G1/S (log2)” value is -0.00542.
In the case of “MLGARAWLGRVLLLPRAGAGLAASRRGSSSRDKDRSATVSSSVPMPAGGKGSHPSSTPQRVPNRLIHEKSPYLLQHAYNPVDWYPWGQEAFDKARKENKPIFLSVGYSTCHWCHMMEEESFQNEEIGRLLSEDFVSVKVDREERPDVDKVYMTFVQATSSGGGWPMNVWLTPNLQPFVGGTYFPPEDGLTRVGFRTVLLRIREQWKQNKNTLLENSQRVTTALLARSEISVGDRQLPPSAATVNNRCFQQLDEGYDEEYGGFAEAPKFPTPVILSFLFSYWLSHRLTQDGSRAQQMALHTLKMMANGGIRDHVGQGFHRYSTDRQWHVPHFEKMLYDQAQLAVAYSQAFQLSGDEFYSDVAKGILQYVARSLSHRSGGFYSAEDADSPPERGQRPKEGAYYVWTVKEVQQLLPEPVLGATEPLTSGQLLMKHYGLTEAGNISPSQDPKGELQGQNVLTVRYSLELTAARFGLDVEAVRTLLNSGLEKLFQARKHRPKPHLDSKMLAAWNGLMVSGYAVTGAVLGQDRLINYATNGAKFLKRHMFDVASGRLMRTCYTGPGGTVEHSNPPCWGFLEDYAFVVRGLLDLYEASQESAWLEWALRLQDTQDKLFWDSQGGGYFCSEAELGAGLPLRLKDDQDGAEPSANSVSAHNLLRLHGFTGHKDWMDKCVCLLTAFSERMRRVPVALPEMVRALSAQQQTLKQIVICGDRQAKDTKALVQCVHSVYIPNKVLILADGDPSSFLSRQLPFLSTLRRLEDQATAYVCENQACSVPITDPCELRKLLHP [SPATA20]”, the figures for the thermal stability score with HeLa Kyoto [1] (setting [5]) and in the data set on HeLa Kyoto [1] (cell cycle stage: mitosis) were 0.594 and 0.85, respectively. The “solubility change mitosis (log2)” value with HeLa Kyoto [2] was -0.304. Further, the figures for the melting temperature with HeLa Kyoto [3] (cell cycle stage: G1/S) and in the data set on HeLa Kyoto [3] (cell cycle stage: mitosis) were 51.6 °C and 52.6 °C, respectively. Also, in the data set on HeLa Kyoto [4], the “solubility in G1/S (log2)” value is 0.267.
In the case of “MLGKGVVGGGGGTKAPKPSFVSYVRPEEIHTNEKEVTEKEVTLHLLPGEQLLCEASTVLKYVQEDSCQHGVYGRLVCTDFKIAFLGDDESALDNDETQFKNKVIGENDITLHCVDQIYGVFDEKKKTLFGQLKKYPEKLIIHCKDLRVFQFCLRYTKEEEVKRIVSGIIHHTQAPKLLKRLFLFSYATAAQNNTVTDPKNHTVMFDTLKDWCWELERTKGNMKYKAVSVNEGYKVCERLPAYFVVPTPLPEENVQRFQGHGIPIWCWSCHNGSALLKMSALPKEQDDGILQIQKSFLDGIYKTIHRPPYEIVKTEDLSSNFLSLQEIQTAYSKFKQLFLIDNSTEFWDTDIKWFSLLESSSWLDIIRRCLKKAIEITECMEAQNMNVLLLEENASDLCCLISSLVQLMMDPHCRTRIGFQSLIQKEWVMGGHCFLDRCNHLRQNDKEEVPVFLLFLDCVWQLVHQHPPAFEFTETYLTVLSDSLYIPIFSTFFFNSPHQKDTNMGREGQDTQSKPLNLLTVWDWSVQFEPKAQTLLKNPLYVEKPKLDKGQRKGMRFKHQRQLSLPLTQSKSSPKRGFFREETDHLIKNLLGKRISKLINSSDELQDNFREFYDSWHSKSTDYHGLLLPHIEGPEIKVWAQRYLRWIPEAQILGGGQVATLSKLLEMMEEVQSLQEKIDERHHSQQAPQAEAPCLLRNSARLSSLFPFALLQRHSSKPVLPTSGWKALGDEDDLAKREDEFVDLGDV [MTMR12]”, the thermal stability score with HeLa Kyoto [1] (setting [5]) was -0.744; in the data set on HeLa Kyoto [1] (cell cycle stage: mitosis), -0.447. In addition, in the data set with HeLa Kyoto [2], the “solubility change mitosis (log2)” value is -0.11. For the same sequence, the melting temperature with HeLa Kyoto [3] (cell cycle stage: G1/S) came out at 56.1 °C; with HeLa Kyoto [3] (cell cycle stage: mitosis), 56 °C. In the data set with HeLa Kyoto [4], the “solubility in G1/S (log2)” value is -0.0977.
As to “MLGVRCLLRSVRFCSSAPFPKHKPSAKLSVRDALGAQNASGERIKIQGWIRSVRSQKEVLFLHVNDGSSLESLQVVADSGLDSRELNFGSSVEVQGQLIKSPSKRQNVELKAEKIKVIGNCDAKDFPIKYKERHPLEYLRQYPHFRCRTNVLGSILRIRSEATAAIHSFFKDSGFVHIHTPIITSNDSEGAGELFQLEPSGKLKVPEENFFNVPAFLTVSGQLHLEVMSGAFTQVFTFGPTFRAENSQSRRHLAEFYMIEAEISFVDSLQDLMQVIEELFKATTMMVLSKCPEDVELCHKFIAPGQKDRLEHMLKNNFLIISYTEAVEILKQASQNFTFTPEWGADLRTEHEKYLVKHCGNIPVFVINYPLTLKPFYMRDNEDGPQHTVAAVDLLVPGVGELFGGGLREERYHFLEERLARSGLTEVYQWYLDLRRFGSVPHGGFGMGFERYLQCILGVDNIKDVIPFPRFPHSCLL [NARS2]”, the thermal stability score with HeLa Kyoto [1] (setting [5]) was -0.169; with HeLa Kyoto [1] (cell cycle stage: mitosis), 1.1. Besides, the “solubility change mitosis (log2)” value with HeLa Kyoto [2] is -0.147. Moreover, the melting temperature was found to be 49.7 °C in the data set on HeLa Kyoto [3] (cell cycle stage: G1/S) and 49.8 °C in the data set with HeLa Kyoto [3] (cell cycle stage: mitosis). In the data set with HeLa Kyoto [4], the “solubility in G1/S (log2)” value is -0.141.
With “MLKAVILIGGPQKGTRFRPLSFEVPKPLFPVAGVPMIQHHIEACAQVPGMQEILLIGFYQPDEPLTQFLEAAQQEFNLPVRYLQEFAPLGTGGGLYHFRDQILAGSPEAFFVLNADVCSDFPLSAMLEAHRRQRHPFLLLGTTANRTQSLNYGCIVENPQTHEVLHYVEKPSTFISDIINCGIYLFSPEALKPLRDVFQRNQQDGQLEDSPGLWPGAGTIRLEQDVFSALAGQGQIYVHLTDGIWSQIKSAGSALYASRLYLSRYQDTHPERLAKHTPGGPWIRGNVYIHPTAKVAPSAVLGPNVSIGKGVTVGEGVRLRESIVLHGATLQEHTCVLHSIVGWGSTVGRWARVEGTPSDPNPNDPRARMDSESLFKDGKLLPAITILGCRVRIPAEVLILNSIVLPHKELSRSFTNQIIL [GMPPA]”, the thermal stability score with HeLa Kyoto [1] (setting [5]) is 0.0726; in the data set on HeLa Kyoto [1] (cell cycle stage: mitosis), -3.01. Moreover, in the data set on HeLa Kyoto [2], the “solubility change mitosis (log2)” value was -0.00526. The values for the melting temperature with HeLa Kyoto [3] (cell cycle stage: G1/S) and with HeLa Kyoto [3] (cell cycle stage: mitosis) were 54.4 °C and 53 °C, respectively. In addition, the “solubility in G1/S (log2)” value in the data set with HeLa Kyoto [4] stood at 0.0728.
For the sequence “MLKPQPLQQPSQPQQPPPTQQAVARRPPGGTSPPNGGLPGPLATSAAPPGPPAAASPCLGPVAAAGSGLRRGAEGILAPQPPPPQQHQERPGAAAIGSARGQSTGKGPPQSPVFEGVYNNSRMLHFLTAVVGSTCDVKVKNGTTYEGIFKTLSSKFELAVDAVHRKASEPAGGPRREDIVDTMVFKPSDVMLVHFRNVDFNYATKDKFTDSAIAMNSKVNGEHKEKVLQRWEGGDSNSDDYDLESDMSNGWDPNEMFKFNEENYGVKTTYDSSLSSYTVPLEKDNSEEFRQRELRAAQLAREIESSPQYRLRIAMENDDGRTEEEKHSAVQRQGSGRESPSLASREGKYIPLPQRVREGPRGGVRCSSSRGGRPGLSSLPPRGPHHLDNSSPGPGSEARGINGGPSRMSPKAQRPLRGAKTLSSPSNRPSGETSVPPPPAVGRMYPPRSPKSAAPAPISASCPEPPIGSAVPTSSASIPVTSSVSDPGVGSISPASPKISLAPTDVKELSTKEPGRTLEPQELARIAGKVPGLQNEQKRFQLEELRKFGAQFKLQPSSSPENSLDPFPPRILKEEPKGKEKEVDGLLTSEPMGSPVSSKTESVSDKEDKPPLAPSGGTEGPEQPPPPCPSQTGSPPVGLIKGEDKDEGPVAEQVKKSTLNPNAKEFNPTKPLLSVNKSTSTPTSPGPRTHSTPSIPVLTAGQSGLYSPQYISYIPQIHMGPAVQAPQMYPYPVSNSVPGQQGKYRGAKGSLPPQRSDQHQPASAPPMMQAAAAAGPPLVAATPYSSYIPYNPQQFPGQPAMMQPMAHYPSQPVFAPMLQSNPRMLTSGSHPQAIVSSSTPQYPSAEQPTPQALYATVHQSYPHHATQLHAHQPQPATTPTGSQPQSQHAAPSPVQHQAGQAPHLGSGQPQQNLYHPGALTGTPPSLPPGPSAQSPQSSFPQPAAVYAIHHQQLPHGFTNMAHVTQAHVQTGITAAPPPHPGAPHPPQVMLLHPPQSHGGPPQGAVPQSGVPALSASTPSPYPYIGHPQGEQPGQAPGFPGGADDRIREFSLAGGIWHGRAEGLQVGQDARVLGGE [ATXN2L]”, the figures for the thermal stability score in the data set on HeLa Kyoto [1] (setting [5]) and with HeLa Kyoto [1] (cell cycle stage: mitosis) were -0.388 and -1.51, respectively. Also, the “solubility change mitosis (log2)” value in the data set on HeLa Kyoto [2] was found to be 0.367. Further, the melting temperature with HeLa Kyoto [3] (cell cycle stage: G1/S) came to 52.3 °C; in the data set with HeLa Kyoto [3] (cell cycle stage: mitosis), 53.2 °C. In addition, the “solubility in G1/S (log2)” value in the data set on HeLa Kyoto [4] is -0.0191.

The values are drawn from the supplement of paper PMC5998384.
